# Experiment: soluble on expression in E. coli; label from the status in PepcDB or PDB records
row,Sequence,soluble on expression in E. coli
1,MSRRLFGRLREALNRASEHIARGIVDTLAYKELKPEDLEPVLDDILIDLVESDVALEAAESIVAGVKEGLTGYRVRRGEPVEKVVRDALRKALLTLLDPGPRPDLAAEARRRCGGRPLVILFLGVNGTGKTTTIAKVAYMLRKAGVTPVIAAADTFRAGAQEQLAVHAEKLGVPIVRGRYGGDPASVAYDAVKHAESRGFCAVLVDTAGRMHVDSNLVEELRKIVRVVKPDYKILVVDSLTGNDAVEQARLFDEAVGVDGVIVTKVDADPKGGTLVSVAHAIRKPILYIGTGQRYEDLRPFDPQKIVDQLLG,soluble
2,MSRSDAGRPAPTGADADRRTMVLESAMATFARFGYRKTSMEEVARAAHISRPGLYFLFSSKESLFRAAVTQALHRDITAVERALADGDRPLPERLVEAFDHWAGRYVGPLTRDVATVIEANPGILGEVVEVLPRRFEELVTDAITVATGREGAVRIAQTMISASTGLKHQVGSRESYLERLTVAVGLLLR,not soluble
3,MSRVCVFFLLSFIFSVHADPKVVNLFRVTSLGSLTISVESGGKIFLASGDDNQYLKNIQLTTGTTTITLDKLNDLNDDGSPKFITAAGSVILQTSNNDTTTSRLSGYIYVTTYLQAQDPTFSVYVLKTTQSISKMGMKSTVVVLNTVLRQELIDYDMPRAISYVTKIDHSPNTNLYFQWDIPASNWNDVTNNTFFRNPIELKNGTGPHFKVFFDNIEPLQIGLNYWYITSMGPFNLFLENKYVSDHSYTTTAVNTTGIIVGKSFYADRVVNFQSDTSRSSASGFFDSAYITDDLTIKLQFVGASFSNTLRKESETQNYAWSPAAPVNLTVTSTSTLPGTFYIQYFAFAGDLQPLTSTVATSLMLQTSTTTVASTAVTTSRIITTTKGSSSNCGVHILISLLLSMVFC,not soluble
4,MSSAENIKESGKAKKQKNGNKNNNKKPSAEAIPLKNSPRNKLKKRGSMEQLSEQISEVFTIEMNNDQATVEEPTDTTVRINPADPSSPKVSTSEPKVTVPEPPPTHYAPVVVFIDHLSWPIFLHFVIVNRNMIITKVGRSFLTSLMPGDQISGVDSTPIWCIEDLEHEIQSKPARSVNLTVNRVWNIKCLTNIQLERILPQTDERLQYFMVHVYCSNGTGGLKLYSDKKRVLVQHIRAKTPICHALLVGDQILAINDEFLIGKPKKSLRRHAYDSIKKSFKTKGFAEIIACRPIGARSSPAPSVDAELSGKFANYACGVEKGNKLERKVTDETNNLPLEADALEIALRELTFLQQWVKQDFEEAPCEKGKSLLILKPPFENAKPYEYPPFVVNHQTQLVSAKALSSPVTNTPVAHSPPQALPNKTIIVPVGSTSSVLVPSTTSNALPPVLSLNSQSLSVKTLSMAPQVSQVEPPTSVMNGPTEAADLHVAVPPSPNTPRKRSIFKYKQEKGQTPEHQTTISFVEQPETSKITSDISEDEELKKCDPRSGIVAFIKNKFN,not soluble
5,MSSASELMRCSGRWTLFRRTLPRLRKCVGVGETSGREKPPNSPNSSTLPMMTKTELSPPQIHINFIFFLPKNVFILKNCSL,not soluble
6,MSSDIQQIRIGLTNNHPCSYLADRMERVAVAIDPQMQTPETYEVLMANGFRRSGDTIYKPHCDHCQSCQALRIPAPDFVPSKSQKRLLKLLSQEFHWQLKPELDEDWYTLYARYIFARHRHGSMYPPNKMEFAKFARAKWLNTQYLHLYQGEKLVAIAVTDLLPNSASAFYTFYDPDISISLGTLAVLCQLNYCQQTKKQWLYLGYQIDECPAMNYKVRFNPHQRLVNQRWRGLEHHHHHH,soluble
7,MSSDMRVHSWSCSYYLDLEKQWVSGKLTLTPHSLKFIVEKTEEVLVGLPLSSIIEIRKESSLFIFGAITVLEKGQTKHWFSSLQPSRNVVFNVIEHFWRELLLSQPGTAANIPSHVTRGQELIGLMANSQKRMEDTAKDLQQQSEQLDSVLKGLEKMESDLDVADRLLTELETPSWWPFGSKFWKMPAEENLKEGVSSTCEPFGKEGVVITVPAIISERAESHSKLGKLTVLVSALEIYDSCSLLLHRFEKEDVDDIKVHSPYEVSIRQRFIGKPDVAYQLISAKMPEVIPILEVQFSSKIELLEDALVLRNKVFASSAERHAASRPKGCTPHRELPTGGQEGEQLQLQKNLPLFSEGEAQELTQILSKMKGLALDTEAELERQDAALDGITVAVDRATLNVDKQNRRMRKLM,not soluble
8,MSSETITVERSGKVHHAEGDAARLDAYIPSECPQNHAANLLHLPNGDVLCVWFGGTQEGIADISIYMSRLVKDSGSWSKAAKLSEDATRSEQNPVLFLAPDNVLWLLYTAQKSGNQDTAIVRYRQSTDLGATWGEIGTLLDQPGTFIRQPITVLENGDWLLPVFYCRVQPGEKWVGNDDDSAVKISSDQGKTWREYPVPNSTGCVHMNITPLQDGTLLALYRSRWADFIYQSRSTDGGKTWSEPVATDLPNNNSSIQVTTLKNGHLALVFNHMSAADATDRRLSLYDEIEDEEDKASGAKMPEVQAGDRSAFWGAPRAPMTLAISEDGGKSWPYQRNIEVGDGYCMTNNSTEKLNREFSYPSVKQAPDGKLHVAFTYFRQAIKHVVVSEEWVKAGLEHHHHHH,not soluble
9,MSSFLFENAAILDGQARELRENQHVLVEANRIIEVSDKPIKSKNSERINVNGMTLMPGLIDAHVHVKATIVNVGRLSDIPVSYLTADAGKFMRQMLMRGFTTVRDAGGADRGLADAVTDGLLIGPRLFVSGLSLSQTGGHGDMRPVTSDSHPITCACLASTQQLGRIADGVDECRRAARDELRKGAHQIKIMAGGGVASPNDPIQNTQYSVEEIRAICEEAAAAHTYVMAHAYVPAAISRAIENGVRTIEHGNLLDAEAAKVMSKHNAFLVPTNVTYRALYKHGKSFGFPEVSIGKLKDVLDVGLSAIEIAKNNGVKIGHGSDLLGECQVYQSDELSIKAEVVGNYEAIRHATEVNAEILNMTGELGVIKENALADILIVDGNPIKDVGFLSNDAKFIPNNNER,soluble
10,MSSGSAGAPALSNNSTNSVAKEKSGNISGDEYLSQEEEVFDGNDIENNETKVYEESLDLDLERSNRQVWLVRLPMFLAEKWRDRNNLHGQELGKIRINKDGSKITLLLNENDNDSIPHEYDLELTKKVVENEYVFTEQNLKKYQQRKKELEADPEKQRQAYLKKQEREEELKKKQQQQKRRNNRKKFNHRVMTDRDGRDRYIPYVKTIPKKTAIVGTVCHECQVMPSMNDPNYHKIVEQRRNIVKLNNKERITTLDETVGVTMSHTGMSMRSDNSNFLKVGREKAKSNIKSIRMPKKEILDYLFKLFDEYDYWSLKGLKERTRQPEAHLKECLDKVATLVKKGPYAFKYTLRPEYKKLKEEERKATLGELADEQTGSAGDNAQGDAEADLEDEIEMEDVV,soluble
11,MSSGYSSLEEDEDFFFTARTSFFRRAPPGKSRSGQPDVEKEKETHNYLSKEEIKEKVHKYNSAVTDKLKMTLNSNGIYTGFIKVQMELCKPAQPSPEPSSGGCMNTLHISSTNTVGEVIEALLRKFLVTESPTKFALYKRCHREDQVYACKLSDREHPLYLRLVAGPRTDTLSFVLREHEIGEWEAFSLPELQNFLRILDKEEDEQLQSLKRRYTAYRQKLEEALGEVWKPG,not soluble
12,MSSIKIECVLPENCRCGESPVWEEVSNSLLFVDIPAKKVCRWDSFTKQVQRVTMDAPVSSVALRQSGGYVATIGTKFCALNWKEQSAVVLATVDNDKKNNRFNDGKVDPAGRYFAGTMAEETAPAVLERHQGALYSLFPDHHVKKYFDQVDISNGLDWSLDHKIFYYIDSLSYSVDAFDYDLQTGQISNRRSVYKLEKEEQIPDGMCIDAEGKLWVACYNGGRVIRLDPVTGKRLQTVKLPVDKTTSCCFGGKNYSEMYVTCARDGMDPEGLLRQPEAGGIFKITGLGVKGIAPYSYAG,soluble
13,MSSKSTKRAKIEDPKDNVFMVEKVLDKRTGKAGRDEFLIQWQGFPESDSSWEPRENLQCVEMLDEFEREFSKREKPIRKRHSQKPEPSEDQADPEEDKDEKKETNQNDKFSLEGKQLKCIVGLTKGPGELHFLCKFSDDTARLLPAKEVNSRYRPFVDAYGEFLKKKMERRHKRISEGKKKRSIEEDDADDEWPEMPPGHRILTTEEHELQRRKESKISQDVEMTEAFQQTAADMLNDMHMAANGDLLSSFPQDFLEDSGDGEVHEAAILSVFDDNSNSPPPCPIVVDTVPDDDDSLLFPRNS,soluble
14,MSSLADLINLDLSDSTDQIIAEYIWIGGSGLDMRSKARTLPGPVTDPSQLPKWNYDGSSTGQAPGDDSEVIIYPQAIFKDPFRRGNNILVMCDAYTPAGEPIPTNKRHAAAKIFEDPSVVAEETWYGIEQEYTLLQKDIKWPVGWPVGGFPGPQGPYYCGVGADKAFGRDIVDSHYKACLYAGINVSGTNGEVMPGQWEFQVGPTVGIAAADQVWVARYILERITELAGVVLSLDPKPIPGDWNGAGAHTNYSTKSMREDGGYEVIKKAIEKLGLRHKEHIAAYGEGNERRLTGKHETADINTFLWGVANRGASIRVGRDTEQAGKGYFEDRRPASNMDPYTVTSMIAESTILWKP,soluble
15,MSSNYVMATKEGQMLLTQGKPMLDKDTGLLSYTDEQGNQKQINSDQVSQIVQRLEHHHHHH,not soluble
16,MSSPRHVFYISDRTGLTAENIGEALLNQFGNLSFKRHTHPFVDTPEKARAVVEKVNRSRQENGQRPIAFVSVVDDEIRRIIKGADAFQINFFETFLGLLEKELNTEATASEQGHHSIGNTKRYDARMEAVNFSLNHDDGVSDKNLQEADVILMGVSRSGKTPTCLYLALQYGIRAANYPLIPDDLESADLPRMVKPYRDKLFGLTIQPERLQAIRQERRPNSTYAKIDTCRSEVADAQSMFRRHGIPFANTTDKSVEELAVHILQACKLKRRFLEHHHHHH,soluble
17,MSSPSSASESDSSQMSLLATPPVAIRRPLPYPRDIISSPLEVATPVTVSPTDFMPIRELVTTPYHISTPVLITPVDARSISREIVRVNRIRRVRTRQASRSVFNSVRRRLSMITANRTEIQMNTPQTLPRSKRIDNTSTAMEPVSSNAFQKIISEILNNSPACTETINSTIIPSNSSNCAKLREFNRLESIGIAQMAVENENEILEALDFIEWNIRLMSCESDYIDKVLEDLENEKLNKQNKWERIELILSLIQD,not soluble
18,MSSRVANLTVIVSSKRRRVSVARFSCGKTAQLSKKQTGYYSPEIFPSTGKDCNPQPANCLKDQYVLRHCCVDDRSGKMGYSVKFLVLTRMDTETASLFHCKPCYSKMTFTIYHPLTHSFFTSCWLEHHHHHH,not soluble
19,MSSSAAKYDVFQAIADPTRREVIRLLSDKELPISKITDHFPMSRTAVVKHLHILSEANLVSGRKSGREKIYRLHPEPLEELQQWLSYYERFWDNKLSMLKHIVENEE,not soluble
20,MSSSGPTRSISTGTKPPTESLYKREVAQMMQQHQQQQRINNNKGYRPQGASPPKELKRRFYDDGSVTPSSRQSRNERSMDGRPSPEHGAIIGENRKSSPPAEEKYSNSGTRCKLPIPDMFRFYDKEMANEKLESLGLADEDDKKTLTKMRRHSIWMDNQLLNQLQASESNKQYLSAKKQMRDILITRIDHIDNAHKNVNSLFVHDFVHDYIILFKNKVSKSEKFLLCLKKINN,not soluble
21,MSSSPAVKGLTDEEQKTLEPVIKTYHQFEPDPTTCTSLITQRIHAPASVVWPLIRRFDNPERYKHFVKRCRLISGDGDVGSVREVTVISGLPASTSTERLEFVDDDHRVLSFRVVGGEHRLKNYKSVTSVNEFLNQDSGKVYTVVLESYTVDIPEGNTEEDTKMFVDTVVKLNLQKLGVAATSAPMHDDE,soluble
22,MSSSQVVRDSAKKLVNLLEKYPKDRIHHLVSFRDVQIARFRRVAGLPNVDDKGKSIKEKKPSLDEIKSIINRTSGPLGLNKEMLTKIQNKMVDEKFTEESINEQIRALSTIMNNKFRNYYDIGDKLYKPAGNPQYYQRLINAVDGKKKESLFTAMRTVLFGK,not soluble
